Test: soluble on expression in E. coli; label from the status in PepcDB or PDB records

| Sequence | soluble on expression in E. coli |
| --- | --- |
| MQRNVMSEIVYGDKQLQILIAAEKLIAEQGFQGLSMHKVAKAANMATGTIYRYFRDKDHLLIEVRLHVSQKIAEAVQANLRDDMSLQERFRTMWLNIWTLAGSCRDIISNRVQYESLPTTTCCNVRELEQKMFAKVELLFDQGKQQGIFKPLDNHLLSALSFETTVTLARQYALGFYQLDDSTLDAMIQASWDAITQH | not soluble |
| MQSAKPLFDYPKYWAECFGPAPFLPMSREEMDLLGWDSCDIIIVTGDAYVDHPSFGMAIIGRLLESQGFRVGIIAQPNWQSKDDFMKLGEPNLFFGVAAGNMDSMINRYTADKKIRSDDAYTPGGMAGKRPDRASLVYSQRCKEAYKHVPIVLGGIEASLRRIAHYDYWQDKVRNSILIDACADILLYGNAERAIVEVAQRLSYGHKIEDITDVRGTAFIRRDTPQGWYEVDSTRIDRPGKVDKIINPYVNTQDTQACAIEQEKGNVEDPNEAKVVQILASPRMTRDKTVIRLPSVEKVRNDAVLYAHANRVLHLETNPGNARALVQKHGEVDVWFNPPPIPMTTDEMDYVFGMPYARVPHPAYGKEKIPAYDMIRFS | not soluble |
| MQSLIGLMRPETGKKLENLNHFIQQFEKVLIAFSGGVDSSTLAAVCSNAGVEVLAVTVLSSVSPRREMEEAKRIAEELGVRHEFLKIDLMDEDFRRNDENRCYYCKRRVLSALVEEAKKRGIEVVLEGTNASDLSDHRPGYRAVRELDGVNSPWVEFGITKEEIREIARSMGYSFHDKPSMACLASRIPFGIEIDEEKLKMVDEAEEAVIELAGVKQVRVRNYDGVAVVEVAGDELRKLLNCAEKVRDKLKKIGFRAVLIDLEGYRSGKRLFKF | not soluble |
| MQSTFRRSTLAALRGFALPSDAISIVPSAADYRRCLLEKIASATRRIYIIALYLQQDEAGQEILDALYAAKAARPELDVVVLVDWFRAQRGLIGAGRQPGNSTWYQAQNLEYDEEVPIYGVPVQTRELFGVLHLKGSVIDDCVIYSGASINNVYLHKLDKYRLDRYHLIESAPLADSFEHLVQREILPSAAVHRLDLQSPPSSRSLRSEIRAFRSDLKRATYDTSAGDKENGQLRVIPLLGVGPRNSLNRAICDLIASSKIQLTICTPYFNLPVAVTREVNRALKRGVKVDIIIGDKTANDFFIDPDEPFKVISALPYLYEISLRRFAHKHQKAIAQQRLNVHLWKHGDNTFHLKGIWVDQRYTLLTGNNLNPRAFNLDLENGLLIDDPQGQWTDPREAEIAQLMRNTQRVNQYDELDTLANYPEGVRKFLKRVSRVRVERLLYRILLEHHHHHH | not soluble |
| MQTFGSRGEKRTFEMLTNEVEYQHYRFSFANNPATAAGIFQLAEIELTVVADAPLVDFASNISRAEIGENVQFWDRSLANPTGWQWTFEDGEPATSTNRNPAVTFTSLGAKSVTLVASNDKGSNEKVQEQVVHIWDSQNPWAGYVKPTVTLVAHKPEHEGQIAFSRVMPDIEAVIHDISLQIVKVLYKDVAEAPLFKTVTFETDEYDFPAAKSGTDEDMILMMDVAHLANKAAEGDDALRDEVIGMLWHELTHGYNNSPNSGEYATGDEYHSYLESLANYMRIKAGFHESRRVGIKWVDNWNVDAYEQTSFFLEWVANSHRSVDFIYLFNKAAGDLKEWSFEAAFKSIFGEDKGVSIFWQEYHDAQGIEPPYPTPVDGYRNFAVDEGVSISTNATTVIIPDWDAYEGEDKLIDNNVTKKFNAFIEGTWWLEEHASHLFPINDITNVEVTFELPDAIVLHKYSVTTGNDNPQRDPTLWTISGSVDGEVWTQLDSDNYPSDPERLITFHYDIDDAVTAYKYYQFVFENTQPAGDSIGGDNGRLVQIGEIALLTEELEHHHHHH | soluble |
| MQTGRQQNKGTIFASLNMSRKNRHNVLPRATMLRKKAIQIRLNEAEHKAVETYCSRFKVENRSRWIRETLMKEVIHRLESDTPLLFREEEMR | not soluble |
| MQTSFCVLVSIIERMPTWNDIKVRNPQHSHNYAKRWENLEAEGNDINGEARLIDALVQRGSKILDAGCGQGRVGGYLSARGHIVTGIDIDDYLISEAEKKFPSATWHVGDLGSESIPDQGFDIAVCAGNVITFIEPDKQEAALAHIFEALRPNGRCIIGFGAGRGYVFPQFFEDARNVGFVIENNFESWGLNPLTNRSQFLVAFLRKPELEHHHHHH | not soluble |
| MQTVIGTTNGRPGTTYYQRGRMHRHQPGNRQQKEKKAAAGRNRNDFLTGRILPVTPDYCMEIRAGEKINLTTRENFDFLYRSALRYSALVGLRLPFRPTGKSPRMNIVKLYRAMDTILPEHVNLEEENGRLYFCLYRFHEWPEYKLFWIPLEFTERLPEKLGKIALEFIRQLARHHGIPKSTDTSYHEMAHDYLEDYRLYDEEATAGEIRRKAALARLYEKGKAHRILKRMDNPKGFLADLEGEIRKYHTKKNNERALLELLTEGTAYISYGSPSIMQYSYDWAYEKAADFRPVGLDTQIMVTWSVKDAMNDEMESYFNSDYQESYVITPVTTFHLTPDTEKPFSMDDFPERFSHWLERFTKLITNNF | not soluble |
| MQTYIETSRLILRDWKEEDIPAFARMNADPHVMEFFLHPLTPEESLAFYHRIQNEFQTCGFGLYAVERKEDHAFMGYTGLHQITFDVDFAPGIEIGWRLAHEYWGRGYAPEAATACLEYARKSLDIKELFSFTSLPNQRSERVMQKIGMERVREFGHPLVPAEHPLHRHVLYYIDLRKHSS | not soluble |
| MQVELIIKNLKVYNSYFKKFIKSDVLINEGKFLHIGKGYEDRLWSENIIDGEDKYIIPGLIDIHMHIESSMTIPREFSKAAIKHGVTTVVADPHEIANVFGVRGIEEFIKFKGNLDIFYGILEHHHHHH | not soluble |
| MQYFDVARILTTHGLHGEVKVNVITDFPEDRFAEGMQLELKDDIDRVLTIKKSRPFKQFWLLQFDEITDIDEAEKLRGKILVISEKDRGELPDGVYYYKDIFDCGVIDNETGKRLGKITDIQSPGANDIWLVHEDNGKEYWIPNIADVVKKIDIADKKVYVELMEGLRDEDLEHHHHHH | soluble |
| MQYIKIHALDNVAVALADLAEGTEVSVDNQTVTLRQDVARGHKFALTDIAKGANVIKYGLPIGYALADIAAGEHVHAHNTRTNLSDLDQYRYQPDFQDLPAQAADREVQIYRRANGDVGVRNELWILPTVGCVNGIARQIQNRFLKETNNAEGTDGVFLFSHTYGCSQLGDDHINTRTMLQNMVRHPNAGAVLVIGLGCENNQVAAFRETLGDIDPERVHFMICQQQDDEIEAGIAHLHQLYSVMRNDKREPGKLSELKFGLECGGSDGLSGITANPMLGRFSDYVIANGGTTVLTEVPEMFGAEQLLMDHCRDEATFEKLVTMVNDFKQYFIAHDQPIYENPSPGNKAGGITTLEDKSLGCTQKAGSSVVVDVLRYGERLKTPGLNLLSAPGNDAVATSALAGAGCHMVLFSTGRGTPYGGFVPTVKIATNSELAAKKKHWIDFDAGQLIHGKAMPQLLEEFIDTIVEFANGKQTCNERNDFRELAIFKSGVTL | not soluble |
| MRADVKPVTVKLVDSQATMETRSLFAFMQEQRRHSIMFGHQHETTQGLTITRTDGTQSDTFNAVGDFAAVYGWDTLSIVAPKAEGDIVAQVKKAYARGGIITVSSHFDNPKTDTQKGVWPVGTSWDQTPAVVDSLPGGAYNPVLNGYLDQVAEWANNLKDEQGRLIPVIFRLYHENTGSWFWWGDKQSTPEQYKQLFRYSVEYLRDVKGVRNFLYAYSPNNFWDVTEANYLERYPGDEWVDVLGFDTYGPVADNADWFRNVVANAALVARMAEARGKIPVISGIGIRAPDIEAGLYDNQWYRKLISGLKADPDAREIAFLLVWRNAPQGVPGPNGTQVPHYWVPANRPENINNGTLEDFQAFYADEFTAFNRDIEQVYQRPTLIVK | soluble |
| MRAEFVNPFLASLMNVLKTMASLELKPQKPRIKKDEIARGDVSGLIGMIGPTTRGSMSITFDESLALEIMQNMLGERPNGLNEEVTDMVGEITNMVTGGAKRILAESGFDFDMATPVVVSGRGHTIRHKCEGAIILMPFSSPWGNAFIEICFE | not soluble |
| MRAHTLSRQLREGNLFAEQCPSREVLKHVTSRWGVLILVALRDGTHRFSDLRRKMGGVSEKMLAQSLQALEQDGFLNRVSYPVVPPHVEYSLTPLGEQVSDKVAALADWIELNLPQVLAQRERLSDGG | soluble |
| MRAIGLLEFKEITRGVYAADVMLKATPVELLLIDNICPGKLIVLIEGEVSAVKNAISRGKEVFSEGVIEEVVLTNPHPSLSTVFPRKKQSKKLNYNSIGIIETLSVSSAIKAADKAAKGANVEIIDIKIARFLGGKAIVVLGGEISAVKVAIDAGISAVQKGKLVSSTVVANINEKLLEMWV | soluble |
